The text below walks through data of patent publication US9145571B2, “Preparation method of human metabolites of simvastatin or lovastatin using bacterial cytochrome P450 and composition therefor” (priority 2009, dated 2015).

Data set [1] can be described thus: Oxidation of simvastatin by CYP102A1 wild type/mutants and human CYP3A4, product formation rate (turnover number). In kind it is biochemical. The settings on record: 100 μM simvastatin; mean±SD of triplicate; N.D. = less than 0.001. The protocol:
(§1) It was examined whether CYP102A1 and mutants thereof can oxidize simvastatin and lovastatin. Typical steady-state reactions for the oxidation of simvastatin and lovastatin included 50 pmol CYP102A1 in 0.25 ml of 100 mM potassium phosphate buffer (pH 7.4) along with a specified amount of substrate. To determine the kinetic parameters of several CYP102A1 mutants, 2 to 200 μM of statins were used. An aliquot of a NADPH-generating system was used to initiate reactions (final concentrations: 10 mM glucose 6-phosphate, 0.5 mM NADP+, and 1 IU yeast […]). A stock solution of statins (20 mM) was prepared in DMSO and diluted into the enzyme reactions with a final organic solvent concentration of <1% (v/v).
(§2) In the case of human CYP3A4 activity assay, a control experiment of 50 pmol P450, 100 pmol NADPH-P450 reductase (CPR), 100 pmol cytocrhome b5, and 45 μM L-α-dilauroyl-sn-glycero-3-phosphocholine (DLPC) was used instead of 50 pmol CYP102A1. After the solution was incubated for 30 minutes at 37° C., the reaction was terminated with 2-fold of ice-cold dichloromethane.
(§3) After centrifugation of the reaction mixture, the supernatant was carefully removed and the solvent was evaporated under N2 gas as described in Vickers et al., 1990. The products were analyzed by HPLC using a Gemini C18 column (4.6 mm×150 mm, 5 μm, Phenomenex, Torrance, Calif.) with a mobile phase of acetonitrile/water (70/30, v/v) containing 2.5 mM formic acid. Eluates were detected by UV at 238 nm.
(§4) First, the ability of wild-type and a set of P450 BM3 mutants to oxidize simvastatin and lovastatin was measured at a fixed substrate concentration (100 μM). While simvastatin and lovastatin are known to produce at least four and three metabolites, respectively, CYP102A1 mutants produced only two metabolites, one major (6β-OH statin) and one minor (6′-exomethylene statin) metabolites. The metabolites were analyzed by HPLC and compared to those of human CYP3A4 (FIGS. 1 and 2). Since there is no need to comprise a separate step of the 6′β-OH statin and 6′-exomethylene statin from other products, the use of wild-type and mutant CYP102A1 is beneficial.
(§5) Assays were performed using 100 μM simvastatin or lovastatin. Values are the mean±SD of triplicate determinations.

Data set [2] is described as follows: Oxidation of lovastatin by CYP102A1 wild type/mutants and human CYP3A4, product formation rate (turnover number). In kind it is biochemical. The settings on record: 100 μM lovastatin; mean±SD of triplicate; N.D. = less than 0.001. As for the experimental part: as §1, §2, §3, §4, §5
Data set [3] in a line: Total turnover numbers of 6′β-OH product formation, simvastatin. In kind it is biochemical. The settings on record: total 1.0 mM statin, 37° C., 4 hours. The protocol:
In order to measure the total turnover numbers (TTNs; mol product/mol catalyst) of mutant CYP102A1, total 1.0 mM statin was used. The reaction was initiated by the addition of the NADPH-generating system in the presence of 500 μM substrate and incubated at 37° C. for 4 hours. After 2 hours of incubation, the 500 μM substrate was added to the reaction mixture. The formation rate of simvastatin metabolites was determined by HPLC chromatograms.

Data set [4] is described as follows: Total turnover numbers of 6′β-OH product formation, lovastatin. In kind it is biochemical. The conditions noted are these: total 1.0 mM statin, 37° C., 4 hours. As for the experimental part:
In order to measure the total turnover numbers (TTNs; mol product/mol catalyst) of mutant CYP102A1, total 1.0 mM statin was used. The reaction was initiated by the addition of the NADPH-generating system in the presence of 500 μM substrate and incubated at 37° C. for 4 hours. After 2 hours of incubation, the 500 μM substrate was added to the reaction mixture. […]

Data set [5] can be described thus: Kinetic parameters of 6′β-hydroxylation of simvastatin. In kind it is biochemical. The conditions noted are these: 2 to 200 μM statin. As for the experimental part:
(§6) The 6′β-hydroxylation rates of simvastatin (A) and lovastatin (B) were measured in reaction mixtures consistingof 50 pmol CYP102A1 in 0.25 ml of 100 mM potassium phosphate buffer (pH 7.4) along with a specified amount of substrate (2 to 200 μM of statins)
as §1
(§7) The kinetic parameters (Km and kcat) were determined using nonlinear regression analysis with GraphPad PRISM software (GraphPad, San Diego, Calif.). […]

Data set [6] can be described thus: Kinetic parameters of 6′β-hydroxylation of lovastatin. In kind it is biochemical. The settings on record: 2 to 200 μM statin. The protocol: as §6, §1, §7
Another data set concerns the target T1, CYP102A1 mutant #16 (Priestia megaterium, UniProt P14779, E144G/E268V/F82I/F88V/L189Q/R48L).
T1 construct: made in house; host or cells: Escherichia coli DH5αF′-IQ (soluble cytosolic fraction)
In kind it is biochemical, Bacillus megaterium. The settings on record: 50 μM αNF. As for the experimental part: (§8) Reaction mixtures consists of 50 pmol P450, 100 mM potassium phosphate buffer (pH 7.4), a NADPH-generating system, and a substrate (100 μM of simvastatin or lovastatin) in the presence of αNF (2 to 50 μM).
(§9) Products were analyzed by HPLC, as described above. In the case of human CYP3A4 activity assay, a control experiment of 50 pmol P450, 100 pmol NADPH-P450 reductase (CPR), 100 pmol cytocrhome b5, and 45 μM DLPC was used instead of 50 pmol CYP102A1.

The next data set deals with T2, CYP102A1 mutant #17 (Priestia megaterium, UniProt P14779, E144G/E268V/E65G/F82I/F88V/L189Q/R48L).
T2 construct: made in house; host or cells: Escherichia coli DH5αF′-IQ (soluble cytosolic fraction)
T2 sequence (P14779 2-1049 R48L/E65G/F82I/F88V/E144G/L189Q/E268V): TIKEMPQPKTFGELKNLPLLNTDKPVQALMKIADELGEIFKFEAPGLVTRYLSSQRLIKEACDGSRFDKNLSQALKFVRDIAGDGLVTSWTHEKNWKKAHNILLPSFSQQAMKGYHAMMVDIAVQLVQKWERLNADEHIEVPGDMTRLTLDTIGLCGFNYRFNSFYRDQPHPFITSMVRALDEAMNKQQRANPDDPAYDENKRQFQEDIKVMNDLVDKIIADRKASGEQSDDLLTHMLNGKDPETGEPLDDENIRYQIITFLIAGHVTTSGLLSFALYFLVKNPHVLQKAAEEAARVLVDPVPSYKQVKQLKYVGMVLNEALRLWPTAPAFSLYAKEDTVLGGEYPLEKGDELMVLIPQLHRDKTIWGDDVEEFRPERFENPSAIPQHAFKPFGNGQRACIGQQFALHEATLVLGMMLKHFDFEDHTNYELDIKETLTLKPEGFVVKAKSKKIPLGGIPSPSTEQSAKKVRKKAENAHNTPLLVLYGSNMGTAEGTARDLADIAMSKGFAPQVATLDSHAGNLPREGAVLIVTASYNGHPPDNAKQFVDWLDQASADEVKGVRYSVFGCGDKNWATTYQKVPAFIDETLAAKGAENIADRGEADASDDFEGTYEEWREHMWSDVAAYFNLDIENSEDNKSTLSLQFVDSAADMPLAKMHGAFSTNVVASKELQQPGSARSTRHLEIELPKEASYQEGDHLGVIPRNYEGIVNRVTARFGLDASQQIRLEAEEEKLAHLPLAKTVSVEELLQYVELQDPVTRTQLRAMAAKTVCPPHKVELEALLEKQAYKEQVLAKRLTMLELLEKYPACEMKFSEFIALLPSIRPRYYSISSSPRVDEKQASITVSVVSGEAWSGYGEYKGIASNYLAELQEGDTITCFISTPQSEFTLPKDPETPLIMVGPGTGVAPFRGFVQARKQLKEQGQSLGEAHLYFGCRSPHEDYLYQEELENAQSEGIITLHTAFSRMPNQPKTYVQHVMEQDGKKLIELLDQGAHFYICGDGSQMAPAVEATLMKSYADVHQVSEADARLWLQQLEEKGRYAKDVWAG
In kind it is biochemical, Bacillus megaterium. The settings on record: 50 μM αNF. As for the experimental part:
as §8, §9

Data set [7] concerns the target triple CYP102A1 mutant of R47L/F87V/L188Q (Priestia megaterium, UniProt P14779, F88V/L189Q/R48L). The conditions noted are these: cited from earlier work.

Where “and” joins values, the source holds several entries; their conditions need not be identical. Equal values may be shown once.

T1 sequence (P14779 2-1049 R48L/F82I/F88V/E144G/L189Q/E268V): as the sequence (P14779 2-1049 R48L/E65G/F82I/F88V/E144G/L189Q/E268V) above, with G64E counted along it
Chain of triple CYP102A1 mutant of R47L/F87V/L188Q (P14779 2-1049 R48L/F88V/L189Q): as the sequence (P14779 2-1049 R48L/E65G/F82I/F88V/E144G/L189Q/E268V) above, with G64E, I81F, G143E, V267E counted along it

What is called Km is the substrate concentration at which the rate is half of its maximum. As to “Human CYP3A4: human cytochrome P450 3A4, reconstituted with NADPH-P450 reductase, cytochrome b5 and DLPC”, in [1], the “Simvastatin 6β′-OH product formation rate” value is 3.0 ± 0.1 nmol product/min/nmol P450 and the “Simvastatin 6′-Exomethylene product formation rate” value was 0.22 ± 0.01 nmol product/min/nmol P450. In data set [2], the “Lovastatin 6β′-OH product formation rate” value is on record as 6.5 ± 0.3 nmol product/min/nmol P450 and the “Lovastatin 6′-Exomethylene product formation rate” value is reported as 0.43 ± 0.01 nmol product/min/nmol P450. Also, in [3], the “Total turnover number of 6′β-OH product formation, simvastatin” value (shortened to “Total turnover number … simvastatin”) was determined as 35 ± 5 nmol product/nmol P450. The “Total turnover number of 6′β-OH product formation, lovastatin” value (shortened to “Total turnover number … lovastatin”) in data set [4] is listed as 44 ± 6 nmol product/nmol P450. In addition, in data set [5], the Michaelis-Menten constant (Km) was 130 µM; the “kcat, 6′β-hydroxylation of simvastatin” value was 0.11 s⁻¹ and 0.11 ± 0.015 s⁻¹. Moreover, in [6], the Km was determined as 54 ± 15 µM; the “kcat, 6′β-hydroxylation of lovastatin” value was 0.07 s⁻¹ and 0.07 ± 0.0083 s⁻¹.

Take `O=c1cc(-c2ccccc2)oc2c1ccc1ccccc12` [αNF, 7,8-benzoflavone]: the “Inhibition of 6′β-hydroxylation activity of lovastatin” value at CYP102A1 mutant #16 (100 μM lovastatin) amounted to 48%; on CYP102A1 mutant #17 (100 μM lovastatin) it was 76%. Also, the “Inhibition of 6′β-hydroxylation activity of simvastatin” value on CYP102A1 mutant #16 (100 μM simvastatin) is on record as 44%; on CYP102A1 mutant #17 (100 μM simvastatin), 77%. The “Effect on metabolism of acetaminophen and 3,4-methylenedioxymethylamphetamine” value in data set [7] was “did not have a significant effect”.

B1: BM3 WT: wild-type bacterial cytochrome P450 BM3 (CYP102A1), Seq ID No. 16 (protein, listed as Bacillus megaterium)
chain: TIKEMPQPKTFGELKNLPLLNTDKPVQALMKIADELGEIFKFEAPGRVTRYLSSQRLIKEACDESRFDKNLSQALKFVRDFAGDGLFTSWTHEKNWKKAHNILLPSFSQQAMKGYHAMMVDIAVQLVQKWERLNADEHIEVPEDMTRLTLDTIGLCGFNYRFNSFYRDQPHPFITSMVRALDEAMNKLQRANPDDPAYDENKRQFQEDIKVMNDLVDKIIADRKASGEQSDDLLTHMLNGKDPETGEPLDDENIRYQIITFLIAGHETTSGLLSFALYFLVKNPHVLQKAAEEAARVLVDPVPSYKQVKQLKYVGMVLNEALRLWPTAPAFSLYAKEDTVLGGEYPLEKGDELMVLIPQLHRDKTIWGDDVEEFRPERFENPSAIPQHAFKPFGNGQRACIGQQFALHEATLVLGMMLKHFDFEDHTNYELDIKETLTLKPEGFVVKAKSKKIPLGGIPSPSTEQSAKKVRKKAENAHNTPLLVLYGSNMGTAEGTARDLADIAMSKGFAPQVATLDSHAGNLPREGAVLIVTASYNGHPPDNAKQFVDWLDQASADEVKGVRYSVFGCGDKNWATTYQKVPAFIDETLAAKGAENIADRGEADASDDFEGTYEEWREHMWSDVAAYFNLDIENSEDNKSTLSLQFVDSAADMPLAKMHGAFSTNVVASKELQQPGSARSTRHLEIELPKEASYQEGDHLGVIPRNYEGIVNRVTARFGLDASQQIRLEAEEEKLAHLPLAKTVSVEELLQYVELQDPVTRTQLRAMAAKTVCPPHKVELEALLEKQAYKEQVLAKRLTMLELLEKYPACEMKFSEFIALLPSIRPRYYSISSSPRVDEKQASITVSVVSGEAWSGYGEYKGIASNYLAELQEGDTITCFISTPQSEFTLPKDPETPLIMVGPGTGVAPFRGFVQARKQLKEQGQSLGEAHLYFGCRSPHEDYLYQEELENAQSEGIITLHTAFSRMPNQPKTYVQHVMEQDGKKLIELLDQGAHFYICGDGSQMAPAVEATLMKSYADVHQVSEADARLWLQQLEEKGRYAKDVWAG
With B1, in [1], the “Simvastatin 6β′-OH product formation rate” value is 0.0049 ± 0.0017 nmol product/min/nmol P450 and the “Simvastatin 6′-Exomethylene product formation rate” value was “N.D. (not detectable(the rate of product formation was less than 0.001 nmol product/min/nmol P450))”. Moreover, in data set [2], the “Lovastatin 6β′-OH product formation rate” value is reported as “N.D. (not detectable(the rate of product formation was less than 0.001 nmol product/min/nmol P450))” and the “Lovastatin 6′-Exomethylene product formation rate” value is recorded as “N.D. (not detectable(the rate of product formation was less than 0.001 nmol product/min/nmol P450))”. In addition, in data set [3], the “Total turnover number … simvastatin” value was determined as 0.77 ± 0.04 nmol product/nmol P450. In data set [3] (listed as wild-type CYP102A1), the “Total turnover number … simvastatin” value turned out to be 0.77 nmol product/nmol P450. In [4], the “Total turnover number … lovastatin” value was found to be 1.9 ± 0.6 nmol product/nmol P450. For the same molecule, in data set [4] (listed as wild-type CYP102A1), the “Total turnover number … lovastatin” value was found to be 1.9 nmol product/nmol P450.
